Consider three substances from patent publication US7078478B2, “Inhibition of the proliferation of cells of the multiple myeloma” (GSF-Forschungszentrum für Umwelt Gesundheit, GmbH, priority 1999, dated 2006).

Experiment [1] relates to IL-6 dependent murine cell line 7TD-1. As to the kind of experiment: IL-6 induced cell proliferation of 7TD-1 cells incubated with peptides, microscopic cell counting. It counts as cell-based. The note with it: 7TD-1 stimulated with 40 pg IL-6, 100 μM peptide, 4 days, compared with untreated or unstimulated cells. As to the method: Subfragments of the previously described 41 amino acid Hck binding domain of gp130 were used to narrow down the essential parts of this domain. The subfragments, which are shown in FIG. 12, were synthesized by solid phase synthesis, N-terminally coupled to myristate in order to render them membrane soluble, and diluted in DMSO. A MM-cell line was incubated with the different peptides and cell proliferation was measured.
To determine the effects of the different peptides on IL-6 induced cell proliferation, the IL-6 dependent murine cell line 7TD-1 was stimulated with 40 pg of IL-6 and incubated with 100 μM of the different peptides. After 4 days, the cell proliferation was determined by microscopic cell counting.

The target in experiment [2] is DDM mutant (double point and deletion mutant) of Eg (mouse; human) (UniProt P14753). Put plainly: co-immunoprecipitation with anti-Hck, anti-His blot, Cos-7 lysates (FIG. 6).
For experiment [3], the target named is deletion mutant Δ771-827 of Eg (mouse; human) (UniProt P14753). The description is as above.
Experiment [4] has the same target. Put plainly: co-immunoprecipitation with anti-Hck, anti-His blot, Cos-7 lysates (FIG. 5A).
Experiment [5] has the same target. Put plainly: co-immunoprecipitation with anti-Hck, anti-His blot, Cos-7 lysates (FIG. 5B).

Take TQPLLDSEERPEDLQLVD [compound 2]: in experiment [1], the cell proliferation result is given as “down regulation of cell proliferation to the basal level”.
Same read-out and setting: as for LLDSEERPEDLQLVD [compound 6], the entry is “down regulation of cell proliferation to the basal level”.
For the substance “Hck tyrosine kinase (wild type Hck, expressed from pcDNA3-Hck or pDpuro-Hck) (from UniProt P08631 2-526) (enzyme)”, the reduction of Hck binding to gp130 in experiment [2] and in experiment [3] was more than 90% throughout. Besides, the decrease of Hck co-precipitation with gp130 in experiment [4] is more than 90%. This substance also yielded a loss of gp130 co-precipitation with Hck in experiment [5] of 90%.
